Source: publication PMC5780496

Biological target: HACE1 (UniProt Q8IYU2)
Test: co-IP of differently tagged HACE1
Conditions: reference: HACE1 WT with PAK1(K141A); sites S385

HACE1, sequence (Q8IYU2 whole entry, stated change not applied): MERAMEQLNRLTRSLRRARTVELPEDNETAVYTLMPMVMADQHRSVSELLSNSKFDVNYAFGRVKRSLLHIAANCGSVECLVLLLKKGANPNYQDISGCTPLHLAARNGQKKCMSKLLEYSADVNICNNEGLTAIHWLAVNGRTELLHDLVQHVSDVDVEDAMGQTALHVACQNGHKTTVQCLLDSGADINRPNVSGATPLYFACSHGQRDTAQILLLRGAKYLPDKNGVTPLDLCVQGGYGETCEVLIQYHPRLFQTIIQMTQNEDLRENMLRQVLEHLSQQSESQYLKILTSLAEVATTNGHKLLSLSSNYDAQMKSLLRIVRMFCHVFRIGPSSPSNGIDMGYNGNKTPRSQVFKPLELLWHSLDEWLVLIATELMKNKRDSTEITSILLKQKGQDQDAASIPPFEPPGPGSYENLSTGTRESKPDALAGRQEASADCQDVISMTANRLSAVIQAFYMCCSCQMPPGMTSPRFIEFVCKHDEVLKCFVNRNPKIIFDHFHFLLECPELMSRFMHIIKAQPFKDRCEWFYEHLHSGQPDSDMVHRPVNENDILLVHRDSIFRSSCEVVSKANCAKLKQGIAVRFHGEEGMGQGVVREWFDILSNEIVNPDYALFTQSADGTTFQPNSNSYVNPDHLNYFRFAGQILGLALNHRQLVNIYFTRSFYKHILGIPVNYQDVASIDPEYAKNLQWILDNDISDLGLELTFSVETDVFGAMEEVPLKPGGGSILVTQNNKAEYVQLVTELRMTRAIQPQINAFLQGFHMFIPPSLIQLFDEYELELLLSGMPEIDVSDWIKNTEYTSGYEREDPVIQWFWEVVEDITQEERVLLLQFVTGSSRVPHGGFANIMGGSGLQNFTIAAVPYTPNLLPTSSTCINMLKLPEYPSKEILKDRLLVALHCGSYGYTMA

binding against the reference: weaker
Substance: HACE1 (from UniProt Q8IYU2) HACE1 S385A with PAK1(K141A)
